Data on one substance can be found in patent US20090155853A1.

For this experiment, the target named is human coxsackie virus B adenovirus receptor (CAR) expressed on CHO cells (CHO-hCAR) (human) (UniProt P78310). Briefly: cell-based or functional assay.
Chain of UniProt P78310 (P78310 20-365): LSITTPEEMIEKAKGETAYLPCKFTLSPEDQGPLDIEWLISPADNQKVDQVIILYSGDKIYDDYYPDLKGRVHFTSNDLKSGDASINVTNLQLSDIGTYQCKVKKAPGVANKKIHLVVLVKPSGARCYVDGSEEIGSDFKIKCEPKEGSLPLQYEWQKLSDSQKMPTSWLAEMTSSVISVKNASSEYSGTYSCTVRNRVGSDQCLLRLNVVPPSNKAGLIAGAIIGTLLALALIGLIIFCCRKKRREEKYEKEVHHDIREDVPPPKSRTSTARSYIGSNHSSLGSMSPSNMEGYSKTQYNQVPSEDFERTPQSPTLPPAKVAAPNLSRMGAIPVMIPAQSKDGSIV

On to “HMG-PB/Fiber complex (HMG-PB plus Fiber protein) (from UniProt P12538 1-571; P11818 1-581)”, for which the luciferase reporter plasmid delivery (luciferase gene expression) in CHO-hCAR against parental CHO cells turned out to be 6 times.
